The data set has as its system K4 kissing-loop RNA reporter. As to the kind of experiment: apparent KD of K4 kissing-loop reporter; higher = weaker reporter binding. The following applies: Eterna round: R107. On the procedure:
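RNA-MaP round R107: designed RNA switches with theophylline, tryptophan, arginine or FMN aptamers are transcribed on-chip within common flanks. They are titrated with a labelled K4 kissing-loop RNA reporter in RNA-MaP buffer (100 mM Tris pH 7.5, 80 mM KCl, 4 mM MgCl2), without ligand or with the indicated ligand. Median apparent KD per design.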

[1] abbreviates: input ligand: theophylline 20 uM.
[2] abbreviates: input ligand: tryptophan 2.4 mM.
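Note: bound reporter read as fluorescence of individual clusters on recovered sequencing chips by microscopy, with normalized cluster intensities fitted with a binding model.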

With “UGAUUUAACUGAAGGAGCGGCAAUUGAUAAGUAAAUAUAGUGAUGUUAUAUAAGAUAGAGAGCCAGGUAGGUCGCAGAGGUAGGA [ExArgB.K]”, the “apparent KD of K4 kissing-loop reporter” value is 0.193 µM (input ligand: FMN 200 uM); 0.139 µM (input ligand: arginine 13.2 mM); 0.152 µM (input ligand: none); 0.178 µM under setting [1]; 0.127 µM under setting [2].

Regarding “UGCACGGGCUCGGCCGCCACUCCAGCGGGUCGCAAGGUCCGCUACUGAGUGAUGUUCGGUUGGAGGAGGACCGGGAGCCCGUGCG [#2 Exclusion - Tryptophan B Attempt #31 (HarryS)]”, the “apparent KD of K4 kissing-loop reporter” value came out at 0.146 µM (input ligand: FMN 200 uM); 0.114 µM (input ligand: arginine 13.2 mM); 0.133 µM (input ligand: none); 0.139 µM under setting [1]; 0.126 µM under setting [2].

For the sequence “UGCACGUAGUGAUGUUACAGCAAGUUUAUGAAGGAUAUGAGGUUAGUCAGAAGGUCAGCCGUCUCGUUGUAAGCACCUUAUCAUU [theeternabot_exclusion_KL_FMN_A_14]”, the “apparent KD of K4 kissing-loop reporter” value by setting is: (input ligand: FMN 200 uM) 0.305 µM; (input ligand: arginine 13.2 mM) 0.144 µM; (input ligand: none) 0.232 µM; under setting [1], 0.158 µM; under setting [2], 0.155 µM.

As for “UGCAGUGAUGUUGCUAUUUGUCUUGAUUAACGAGGACCGGUACGGCCGCCACUCGAUUUCUCUCUAAUCGAGUAUGUUGUUUAGU [#19 K4 Tryptophan A Exclusion]”, the “apparent KD of K4 kissing-loop reporter” value reads like this: (input ligand: FMN 200 uM) 0.153 µM; (input ligand: arginine 13.2 mM) 0.184 µM; (input ligand: none) 0.162 µM; under setting [1], 0.203 µM; under setting [2], 0.114 µM.

Turning to “UGCAGUGAUGUUGCUAUUUUUCUUGAUUAACGAGGACCGGUACGGCCGCCACUCGAUUUCUCUCUAAUCCAGUAUGUUGUUUAGU [JR_ExcTryptoA_Sub001]”, the “apparent KD of K4 kissing-loop reporter” value turned out to be 0.111 µM (input ligand: FMN 200 uM); 0.144 µM (input ligand: arginine 13.2 mM); 0.121 µM (input ligand: none); 0.14 µM under setting [1]; 0.0904 µM under setting [2].

“UGCAUGCGUAGAGUGAUGUUCUAAGAUGAUACCAGUGCGGAAACGCACCCUUGGCAGCAUCUGACUGCAUGCACGUCGAAAGACG”: the “apparent KD of K4 kissing-loop reporter” value runs as follows: (input ligand: FMN 200 uM) 0.718 µM; (input ligand: arginine 13.2 mM) 0.666 µM; (input ligand: none) 0.826 µM; under setting [1], 0.399 µM; under setting [2], 0.598 µM.

With “UGCAUGCUUGUAGUGAUGUUACAAGAUGAUACCAGUGCUUUUUUGCACCCUUGGCAGCGUCAUAGUGCAUGCACGUCGAAAGACG”, the “apparent KD of K4 kissing-loop reporter” value runs as follows: (input ligand: FMN 200 uM) 0.219 µM; (input ligand: arginine 13.2 mM) 0.153 µM; (input ligand: none) 0.211 µM; under setting [1], 0.32 µM; under setting [2], 0.201 µM.

Consider “UGCUUAAUGGAAGGAUAUUAGGGUUCGACCGCGUAUCAUUGUUAGUCUGGCCAGUGAUGUUGGCCUUAAGAAGGUCCGCUACGGU [theeternabot_exclusion_KL_FMN_B_27]”, for which the “apparent KD of K4 kissing-loop reporter” value (input ligand: FMN 200 uM) is 0.207 µM; the “apparent KD of K4 kissing-loop reporter” value (input ligand: arginine 13.2 mM) amounted to 0.201 µM; the “apparent KD of K4 kissing-loop reporter” value (input ligand: none) was found to be 0.171 µM; the “apparent KD of K4 kissing-loop reporter” value under setting [1] came to 0.204 µM; the “apparent KD of K4 kissing-loop reporter” value under setting [2] was 0.13 µM.

As for “UGCUUUAUCAGAAGGAGCGCGUUGGUCAUAAUAAUAAUCAGUGAUGUUGAUAUAUGAGGAUUGCAGGUAGGUCGCUGAUAUAGCU [KL-XARG-B1]”, the “apparent KD of K4 kissing-loop reporter” value (input ligand: FMN 200 uM) turned out to be 0.323 µM; the “apparent KD of K4 kissing-loop reporter” value (input ligand: arginine 13.2 mM) was found to be 0.21 µM; the “apparent KD of K4 kissing-loop reporter” value (input ligand: none) was found to be 0.39 µM; the “apparent KD of K4 kissing-loop reporter” value under setting [1] turned out to be 0.255 µM; the “apparent KD of K4 kissing-loop reporter” value under setting [2] is 0.229 µM.

Turning to “UGGACAUGACUCGAUAAGAGUCAAUGGGAUACCAGUGACGAAAGUCACCCUUGGCAGCUCAACUGCCAGUGAUGUUGGUAGUCCU [Astros-Elimod]”, the “apparent KD of K4 kissing-loop reporter” value runs as follows: (input ligand: FMN 200 uM) 0.205 µM; (input ligand: arginine 13.2 mM) 0.119 µM; (input ligand: none) 0.207 µM; under setting [1], 0.157 µM; under setting [2], 0.125 µM.

With “UGGACCAAGGAGUGAUGUUCCAAAUGUGAUACCAGCCACGAAAGUGGCCCUUGGCAGCACUGCCAGGACGAAAACGUCCGGUCCU [#SwitchBubble 12 #StaticStem #K4Early]”, the “apparent KD of K4 kissing-loop reporter” value runs as follows: (input ligand: FMN 200 uM) 0.358 µM; (input ligand: arginine 13.2 mM) 0.367 µM; (input ligand: none) 0.391 µM; under setting [1], 0.777 µM; under setting [2], 0.261 µM.

Take “UGGACCAAGGAGUGAUGUUCCAUAUGUGAUACCAGCCACGAAAGUGGCCCUUGGCAGCACUGCCAGGACGAAAACGUCCGGUCCU [#SwitchBubble 13 #StaticStem #K4Early]”: the “apparent KD of K4 kissing-loop reporter” value reads like this: (input ligand: FMN 200 uM) 0.39 µM; (input ligand: arginine 13.2 mM) 0.346 µM; (input ligand: none) 0.503 µM; under setting [1], 0.477 µM; under setting [2], 0.321 µM.

With “UGGACCAGGAGUGAUGUUCCAAAAUGUGAUACCAGCCACGAAAGUGGCCCUUGGCAGCACUGCCAGGACGAAAACGUCCGGUCCU [#SwitchBubble 11 #StaticStem #K4Early]”, the “apparent KD of K4 kissing-loop reporter” value is 0.285 µM (input ligand: FMN 200 uM); 0.191 µM (input ligand: arginine 13.2 mM); 0.278 µM (input ligand: none); 0.268 µM under setting [1]; 0.154 µM under setting [2].

“UGGACGUUAUACAAUAAGUAUAACUGGGAUACCAGUGACGAAAGUCACCCUUGGCAGCUCAACUGCCAGUGAUGUUGGUAGUCCA [Astros-Eli-mod#5]”: the “apparent KD of K4 kissing-loop reporter” value is 0.273 µM (input ligand: FMN 200 uM); 0.116 µM (input ligand: arginine 13.2 mM); 0.2 µM (input ligand: none); 0.235 µM under setting [1]; 0.161 µM under setting [2].

“UGGAGUUGACGAAAAGUCAACUCCGGAGAAGGAGCGGACGAAAGUCCAGGUAGGUCGCUCCCUACCAGUGAUGUUGGUACUGAAA”: the “apparent KD of K4 kissing-loop reporter” value turned out to be 0.244 µM (input ligand: FMN 200 uM); 0.241 µM (input ligand: arginine 13.2 mM); 0.209 µM (input ligand: none); 0.319 µM under setting [1]; 0.181 µM under setting [2].

Consider “UGGAUAUAGUGAUGUUAUAUAGAGAUGGAUACCAGUUAAGAGAAUAGCCCUUGGCAGCCGAAAGAAGUAUCAUUAGAGAAGAAUG [ExTheophyl.Ad]”, for which the “apparent KD of K4 kissing-loop reporter” value was 0.261 µM (input ligand: FMN 200 uM); 0.183 µM (input ligand: arginine 13.2 mM); 0.239 µM (input ligand: none); 0.194 µM under setting [1]; 0.195 µM under setting [2].

Consider “UGGAUAUAGUGAUGUUAUAUAGAGAUGGAUACCAGUUGAGAGAAUAGCCCUUGGCAGCCGAAAGAAGUAUCAUUAGAGAAGAAUG [ExTheophyl.Ak]”, for which the “apparent KD of K4 kissing-loop reporter” value (input ligand: FMN 200 uM) stood at 0.269 µM; the “apparent KD of K4 kissing-loop reporter” value (input ligand: arginine 13.2 mM) is 0.2 µM; the “apparent KD of K4 kissing-loop reporter” value (input ligand: none) turned out to be 0.23 µM; the “apparent KD of K4 kissing-loop reporter” value under setting [1] was determined as 0.219 µM; the “apparent KD of K4 kissing-loop reporter” value under setting [2] is 0.173 µM.

In the case of “UGGAUAUAGUGAUGUUAUAUAGAGAUGGAUACCAGUUUAGAGAAGAGCCCUUGGCAGCCGAAAGAAGUAUCAUUAGAGAAGAAUG [ExTheophyl.Al]”, the “apparent KD of K4 kissing-loop reporter” value was found to be 0.257 µM (input ligand: FMN 200 uM); 0.164 µM (input ligand: arginine 13.2 mM); 0.214 µM (input ligand: none); 0.212 µM under setting [1]; 0.179 µM under setting [2].

With “UGGAUAUAGUGAUGUUAUAUAGAGAUUGAUACCAGUUAAGAGAAUAGCCCUUGGCAGCAGAAAGAAGUAUCAUUAGAGAAGAAUG [ExTheophyl.Ac]”, the “apparent KD of K4 kissing-loop reporter” value is, setting by setting: (input ligand: FMN 200 uM) 0.256 µM; (input ligand: arginine 13.2 mM) 0.182 µM; (input ligand: none) 0.222 µM; under setting [1], 0.213 µM; under setting [2], 0.177 µM.

Regarding “UGGCGAGUGAUGUUCGUUGUUGUAGUGUGUCGAGGACCGGUACGGCCGCCACUCGAGUUGGUUGUUGUUGUUGCUGUUGUUGCUG [#03 K4 Tryptophan A Same State]”, the “apparent KD of K4 kissing-loop reporter” value by setting is: (input ligand: FMN 200 uM) 0.196 µM; (input ligand: arginine 13.2 mM) 0.158 µM; (input ligand: none) 0.181 µM; under setting [1], 0.157 µM; under setting [2], 0.099 µM.

In the case of “UGGCGAGUGAUGUUCGUUGUUGUAGUGUGUCGAGGACCGGUACGGCCGCCACUCGGGUUGGUUGUUGUUGUUGUUGUUGUUGUUG [First Shot]”, the “apparent KD of K4 kissing-loop reporter” value by setting is: (input ligand: FMN 200 uM) 0.218 µM; (input ligand: arginine 13.2 mM) 0.187 µM; (input ligand: none) 0.196 µM; under setting [1], 0.292 µM; under setting [2], 0.101 µM.

For the origin of these results see the supplement of paper PMC9170038.
